This note sets out measurements from paper PMC3408453, “A Foldamer-Dendrimer Conjugate Neutralizes Synaptotoxic β-Amyloid Oligomers” (PLoS ONE, 2012).

For one series, the target named is T1, monomeric Aβ (Homo sapiens, UniProt P05067).
T1 construct: In this work, a depsipeptide derivative of Aβ(1–42) was utilized; made in house; host or cells: chemical peptide synthesis (no expression host)
Nature of the series: ITC titration with monomeric Aβ sample. The series is classed as binding. On the technique in general: In ITC the heat of successive injections is recorded.

Series [1] concerns the target T2, HMW fraction of Aβ oligomers (Homo sapiens, UniProt P05067).
T2 construct: a depsipeptide derivative of Aβ(1–42) was utilized; made in house; host or cells: chemical peptide synthesis (no expression host)
Nature of the series: Concentration-dependent dot blot with SEC-separated HMW Aβ oligomer fraction. It counts as binding. To be noted: 10 µg ligand spotted, BAM10 1∶500. The method, then:
ITC measurement for 7 indicated fractional stoichiometry for the low nM binding, which pointed to that the high affinity interaction involves only a fraction of the oligomeric Aβ sample. To localize the strongly binding fraction in the mixture, size exclusion chromatographic (SEC) separation was carried out and the resulting Aβ oligomer fractions were tested with 7 in concentration-dependent dot blot experiments. Two dominant peaks were found in the SEC chromatogram corresponding to the high molecular weight (HMW) and low molecular weight (LMW) components (Figure 7). […] In control experiments, specific and/or preferential binding of Aβ by the membrane itself were ruled out. These findings were in line with the ITC and ELISA results. It could be concluded that 7 preferentially bound to the LMW fraction at low nM concentration and also interacted with the HMW fraction at sub-µM level.
Figure 7 Selective binding to the LMW Aβ oligomers in the nM range. Size exclusion chromatographic separation of the HMW and LMW fractions of the Aβ oligomeric sample (top panel). Concentration-dependent dot blot experiments performed with the HMW (A) and the LMW fractions (B). The ligand loadings were 10 µg aliquots of 7, and the sequence specific antibody BAM10 (1∶500) was utilized. Lanes within the panels are parallel experiments. […]

For another series, the target named is T3, oligomeric Aβ (Homo sapiens, UniProt P05067).
T3 construct: a depsipeptide derivative of Aβ(1–42) was utilized; made in house; host or cells: chemical peptide synthesis (no expression host)
Nature of the series: ThT binding experiment on oligomeric Aβ. To be noted: oligomeric Aβ + ligand 1∶1, up to 24 h. An excerpt:
The data on 7 were in agreement with its largely helical structure, also found via NMR. […] This was in accord with the NMR results obtained for the recognition segment 1. The secondary structure was probed also with ThT binding experiments (Figure 9B). Pure Aβ oligomers bound ThT at a certain level. This was in accord with the staining with antibody OC; both are capable of recognizing the fibrillar (or protofibrillar) oligomers. […] The latter process is similar to affinity precipitation.
(A) Observed ellipticities in ECD for 36 μM Aβ oligomer (thick black), 9 μM 7 (thin black), and 36 μM Aβ +9 μM 7 (thick dashed). The hypothetical sum of the ECD curves of the pure samples (thin dashed). (B) ThT binding experiment carried out on 36 µM oligomeric Aβ (white bars) and on 36 µM oligomeric Aβ +7 1∶1 mixtures. The relative fluorescence values were monitored up to 24 h.
ThT (Sigma-Aldrich) was dissolved in 50 mM NaH2PO4/Na2HPO4 buffer (pH = 7.0) to a final concentration of 25 μM. […] Two identical 50 μM Aβ oligomer samples were prepared and one of them was mixed with 7 to a final concentration of 50 μM, and the ThT signal intensity was monitored up to further 24 h. […] ThT fluorescence was measured on a plate reader at […] and λem = 480 nm. Data mean values and S.D. were calculated from three parallel measurements.

Series [2] concerns the target T4, Aβ oligomers (HMW and LMW fractions) (Homo sapiens, UniProt P05067).
T4 construct: a depsipeptide derivative of Aβ(1–42) was utilized; made in house; host or cells: chemical peptide synthesis (no expression host)
Nature of the series: SEC analysis of Aβ oligomer – ligand mixtures (affinity precipitation). The following applies: 50 µM Aβ oligomers, injected after filtration. The protocol:
This hypothesis was tested via SEC analysis (Figure 10A). Mixtures of 50 µM Aβ oligomers with 7 in 0.25 and 1.0 equivalents were injected on the SEC column after filtration. […] We concluded that the affinity precipitation occurs for the HMW component, but the LMW fraction is also affected at higher ligand concentrations. […] Thus it was possible to test if the LMW fraction co-elutes with 7. […] The HMW precipitate was also tested for the presence of 7 with LC-MS, and the result confirmed the heterocomplex nature of the product (Figure 10C).
Figure 10 Lower tendency of the LMW Aβ oligomer fraction to affinity precipitation. (A) SEC analysis of pure Aβ oligomers (black) and mixtures of 50 µM Aβ oligomers with 7 in 0.25 (green) and 1.0 (blue) equivalents. The samples were injected on the SEC column after filtration. […] (B) LC-MS results on the LMW fraction taken at 19 min. […] (C) LC-MS results on the HMW precipitate, which confirmed the heterocomplex nature of the product.
iso-Aβ(1–42) was dissolved in sodium hydrocarbonate buffered saline (pH 7.4) to 50 µM and incubated for 24 h at 37°C. The oligomeric Aβ was loaded onto an Äkta Purifier FPLC system (GE Healthcare, UK) equipped with a Superose 6 10 300 column. Sample was eluted at a flow rate of 0.5 ml/min. FPLC chromatogram was taken at 280 nm and 1 ml fractions were collected during the separation.
(In general: SEC sorts molecules by how far they enter the pores of the column.)

As for `N=C(N)NCCC[C@@H](CC(=O)N[C@H]1CCCC[C@@H]1C(=O)N[C@H]1CCCC[C@@H]1C(=O)N[C@@H](CC(=O)O)CC(=O)N[C@H]1CCCC[C@@H]1C(=O)NCC(=O)NCC(=O)N[C@@H](CSC1CC(=O)N(CCC(=O)NCCNC(=O)CCN(CCC(=O)NCCNC(=O)CCN2C(=O)CC(SC[C@H](NC(=O)CNC(=O)CNC(=O)[C@H]3CCCC[C@@H]3NC(=O)C[C@H](CC(=O)O)NC(=O)[C@H]3CCCC[C@@H]3NC(=O)[C@H]3CCCC[C@@H]3NC(=O)C[C@H](CCCNC(=N)N)NC(=O)[C@H]3CCCC[C@@H]3N)C(N)=O)C2=O)CCN(CCC(=O)NCCNC(=O)CCN2C(=O)CC(SC[C@H](NC(=O)CNC(=O)CNC(=O)[C@H]3CCCC[C@@H]3NC(=O)C[C@H](CC(=O)O)NC(=O)[C@H]3CCCC[C@@H]3NC(=O)[C@H]3CCCC[C@@H]3NC(=O)C[C@H](CCCNC(=N)N)NC(=O)[C@H]3CCCC[C@@H]3N)C(N)=O)C2=O)CCC(=O)NCCNC(=O)CCN2C(=O)CC(SC[C@H](NC(=O)CNC(=O)CNC(=O)[C@H]3CCCC[C@@H]3NC(=O)C[C@H](CC(=O)O)NC(=O)[C@H]3CCCC[C@@H]3NC(=O)[C@H]3CCCC[C@@H]3NC(=O)C[C@H](CCCNC(=N)N)NC(=O)[C@H]3CCCC[C@@H]3N)C(N)=O)C2=O)C1=O)C(N)=O)NC(=O)[C@H]1CCCC[C@@H]1N` (some centres unmarked) [Compound 7], the “Binding in ITC titration with monomeric Aβ sample” value on monomeric Aβ is recorded as “did not exhibit submicromolar binding”. Also, the “Dot blot binding of HMW Aβ oligomer fraction” value in series [1] is given as “stained with just below micromolar affinity”. Further, the “Effect on ThT binding of Aβ oligomers” value in the series with oligomeric Aβ is given as “no significant effect on the ThT binding”. Moreover, the “SEC: effect on HMW and LMW Aβ fractions at 0.25 equivalents of ligand” value in series [2] (0.25 equivalents) is “the HMW fraction fully precipitated and disappeared from the SEC chromatogram, whereas the LMW fraction remained intact”. Besides, in series [2] (1.0 equivalents), the “SEC: effect on HMW and LMW Aβ fractions at 1.0 equivalents of ligand” value is “the HMW fraction again disappeared and a partial decrease was observed for the LMW fraction”.
